Assay results: patent publication US8722052B2, “Vaccinia virus protein A46 peptide and use thereof” (priority 2008, dated 2014)

Target: T1, TLR9 (Mus musculus, UniProt Q9EQU3)
T1 construct: using the murine macrophage cell line RAW264.7; endogenous in cells; host or cells: RAW264.7
T1 sequence (Q9EQU3 26-1032): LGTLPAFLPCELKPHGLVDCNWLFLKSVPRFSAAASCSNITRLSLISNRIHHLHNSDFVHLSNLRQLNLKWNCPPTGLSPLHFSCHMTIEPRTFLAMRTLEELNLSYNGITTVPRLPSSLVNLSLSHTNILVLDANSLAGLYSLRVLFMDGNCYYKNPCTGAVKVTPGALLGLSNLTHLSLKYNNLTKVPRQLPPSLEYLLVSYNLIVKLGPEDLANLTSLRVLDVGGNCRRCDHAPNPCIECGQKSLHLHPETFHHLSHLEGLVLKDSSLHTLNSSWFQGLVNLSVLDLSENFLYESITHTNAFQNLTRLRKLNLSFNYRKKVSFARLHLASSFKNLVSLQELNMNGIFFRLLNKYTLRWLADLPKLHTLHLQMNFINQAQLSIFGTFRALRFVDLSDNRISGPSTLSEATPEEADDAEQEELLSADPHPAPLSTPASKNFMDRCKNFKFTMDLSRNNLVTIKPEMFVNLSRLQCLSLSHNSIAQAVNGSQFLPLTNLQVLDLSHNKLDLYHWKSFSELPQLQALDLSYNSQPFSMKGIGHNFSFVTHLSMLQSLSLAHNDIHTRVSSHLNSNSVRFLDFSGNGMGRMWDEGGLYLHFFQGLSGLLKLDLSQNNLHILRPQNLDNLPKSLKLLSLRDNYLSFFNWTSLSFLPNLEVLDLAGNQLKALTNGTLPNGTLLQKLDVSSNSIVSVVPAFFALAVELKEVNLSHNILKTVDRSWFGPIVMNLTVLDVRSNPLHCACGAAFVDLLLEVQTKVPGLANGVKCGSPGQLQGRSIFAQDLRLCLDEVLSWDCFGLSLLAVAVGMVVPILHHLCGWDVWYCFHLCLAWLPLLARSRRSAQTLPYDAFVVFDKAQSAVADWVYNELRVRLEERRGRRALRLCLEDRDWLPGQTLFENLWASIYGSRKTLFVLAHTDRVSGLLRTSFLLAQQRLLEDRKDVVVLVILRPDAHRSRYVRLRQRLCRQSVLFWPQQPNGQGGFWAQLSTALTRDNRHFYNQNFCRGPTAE
Assay: CpG-induced TNFα in RAW264.7 cells, ELISA
Type: cell-based, murine
Conditions: peptide 5 or 20 μM 1 h before CpG, supernatant 24 h
Method: FIGS. 2A and B are bar charts showing the effect of peptides derived from A46 on CpG-induced TNFα in murine RAW264.7 cells. A46 peptides were added to the cells at a concentration of 5 or 20 μM 1 hour before stimulating with […] CpG. Supernatants were collected 24 hours after stimulation and assayed for TNFα by ELISA. No peptides were added into the control wells (black bars). (A) peptides A461-A467 (SEQ ID NO. 17 to 23). (B) peptides A468-A4614 (SEQ ID NO. 24 to 30) (excluding A4612 SEQ ID NO. 28). Data is representative of at least two experiments each performed in triplicate and is expressed as mean±s.d;
Cytokine and chemokine production from cells or mouse serum was measured by ELISA using Duoset kits from R&D systems, according to the manufacturer's instructions.
These peptides were initially screened for effects on TLR-induced gene induction in vitro using the murine macrophage cell line RAW264.7. Unmethylated CpG dinucleotides of bacterial DNA sequences are detected by TLR9, which leads to production of pro-inflammatory cytokines and chemokines, including TNFα via a MyD88-dependent pathway (Latz et al, 2004). […] The effect of the peptides on two TLR9-induced cytokines, namely TNFα and MIP-2, was measured by ELISA. TNFα is NFκB-dependent, and MIP-2 as well as NFκB also requires IRFs for transcriptional activation (De Filippo et al, 2008). […]

## KYSFKLILAEYRRRRRRRRR [Peptide A464]
  inhibition of CpG-induced TNFα production: little or no effect
